Measurements from patent US20240141041A1.

Target: CD52 (human) (UniProt P31358)
Assay: cell-based or functional assay

CAMPATH (alemtuzumab) (antibody)
depletion of infused CD4CAR T cells in mouse blood, 0.1 mg/kg CAMPATH, 6 h and 48 h: > 95%
